Here are results for one molecule from paper doi:10.1101/091256 (bioRxiv, 2016).

This assay concerns the target T1, release factor RF2 (E. coli (K12 strain), UniProt P07012 1-365).
T1 sequence: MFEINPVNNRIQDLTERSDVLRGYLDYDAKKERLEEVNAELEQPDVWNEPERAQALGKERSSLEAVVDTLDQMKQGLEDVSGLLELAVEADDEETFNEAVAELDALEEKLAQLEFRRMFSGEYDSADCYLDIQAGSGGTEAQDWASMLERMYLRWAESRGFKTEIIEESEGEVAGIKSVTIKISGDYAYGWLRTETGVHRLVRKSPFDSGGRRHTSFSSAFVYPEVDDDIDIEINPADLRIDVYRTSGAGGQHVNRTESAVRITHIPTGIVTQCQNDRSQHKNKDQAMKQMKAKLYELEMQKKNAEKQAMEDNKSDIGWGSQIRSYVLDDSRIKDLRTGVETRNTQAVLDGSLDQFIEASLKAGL
Briefly: cryo-EM structure.

B1: ArfA (alternative rescue factor A) (natural protein, E. coli, UniProt P36675 1-60, looked up)
chain: MSRYQHTKGQIKDNAIEALLHDPLFRQRVEKNKKGKGSYMRKGKHGNRGNWEASGKKVNH
In the case of B1, the binding result is recorded as “binds”.
